Test results reported in patent US20030166571A1 (SYNVAX, published 2003).
Numbered stars: 1 amine (or outer) side, 2 acyl side, 3 side chain; on linkers, the order of the positions; unused ones are H or OH. Square brackets hold non-standard residues; d marks the D form. * marks the point of attachment. hPhe(2,4-di-NO2) = 2,4-di-NO2 homophenylalanine, O=C([C@H](CCc1ccc([N+](=O)[O-])cc1[N+](=O)[O-])N[*:1])[*:2]; Phe(4-NHAc) = 4-acetamidophenylalanine, CC(=O)Nc1ccc(C[C@H](N[*:1])C(=O)[*:2])cc1; Phe(4-CH2SO3H) = N[C@@H](Cc1ccc(CS(=O)(=O)O)cc1)C(=O)O; Phe(4-NO2) = N[C@@H](Cc1ccc([N+](=O)[O-])cc1)C(=O)O; Phe(4-CH2NH2) = NCc1ccc(C[C@H](N)C(=O)O)cc1; Tyr(3-Cl) = N[C@@H](Cc1ccc(O)c(Cl)c1)C(=O)O; Dmt = Cc1cc(O)cc(C)c1C[C@H](N)C(=O)O; Dab = NCC[C@H](N)C(=O)O; Dap = NC[C@H](N)C(=O)O; Hexanoyl = CCCCCC(=O)*; Propionyl = CCC(=O)*

Legend:
[1] = molecular target: T1, human ORL-1 receptor (opioid receptor like 1) (human, UniProt P41146 1-370); assay: binding assay at ORL1 (taken as [3H]nociceptin displacement as in Table 1)
T1 construct: whole, on cells; Assays were run on membranes of CHO cells transfected with human ORL-1; also called opiate receptor like 1; nociceptin receptor

[2] = molecular target: T1, human ORL-1 receptor (opioid receptor …); assay: cell-based or functional assay
[3] = molecular target: T1, human ORL-1 receptor (opioid receptor …); assay: [3H]nociceptin displacement, membranes of CHO cells transfected with human ORL-1; Ki=IC50/(1+L/Kd)
Experimental: Receptor binding studies were conducted on human ORL1 (opiate receptor like 1) transfected into Chinese hamster ovary (CHO) cells using each of the hexapeptide analog compounds of Table 3. All the compounds were evaluated for binding affinities. […] The data shown in Table 5 represents the average±SEM of at least two experiments conducted in triplicate.
Cells are removed from the plates by scraping with a rubber policeman, and then homogenized in Tris buffer using a Polytron homogenizer. Following this homogenization step, the cellular mixture is centrifuged once and washed by an additional centrifugation at 40,000×g for 15 min. The pellet formed during the centrifugation is re-suspended in 50 mM Tris, pH 7.5. […] Samples of the suspension are then filtered over glass fiber filters using a Wallac cell harvester.
For the data in Table 5, binding was conducted as described above. IC₅₀ values and Hill coefficients were determined using the curve-fitting program Prism. K₁ values were calculated using the equation K₁=IC₅₀/(1+[L]/Kd). […] The data in Table 5 represent the average±SEM of at least two experiments conducted in triplicate.

T1 sequence (P41146 whole entry): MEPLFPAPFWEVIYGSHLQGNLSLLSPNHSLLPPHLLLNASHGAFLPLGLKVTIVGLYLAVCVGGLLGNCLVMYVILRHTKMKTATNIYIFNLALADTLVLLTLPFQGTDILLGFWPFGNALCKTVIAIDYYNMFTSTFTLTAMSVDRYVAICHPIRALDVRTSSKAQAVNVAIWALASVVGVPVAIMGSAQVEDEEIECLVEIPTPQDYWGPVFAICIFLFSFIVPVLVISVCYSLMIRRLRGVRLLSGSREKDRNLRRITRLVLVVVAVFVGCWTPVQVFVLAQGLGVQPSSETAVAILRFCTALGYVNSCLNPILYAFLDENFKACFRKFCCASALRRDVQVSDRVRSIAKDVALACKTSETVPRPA

Row | Binder | IC50 [1] [nM] | % Stimulation of [35S]GTPγS binding [2] [%] | EC50 (nM) of stimulation of [35S]GTPγS binding [2] [nM] | Ki [3] [nM]
1 | Propionyl-AYYRWR-NH2 (SMILES CCC(=O)N[C@@H](C)C(=O)N[C@@H](Cc1ccc(O)cc1)C(=O)N[C@@H](Cc1ccc(O)cc1)C(=O)N[C@@H](CCCNC(=N)N)C(=O)N[C@@H](Cc1c[nH]c2ccccc12)C(=O)N[C@@H](CCCNC(=N)N)C(N)=O) [IV-21-C Propionyl-AYYRWR-NH2] | 1780 | – | – | –
2 | Propionyl-RAYRWR-NH2 (SMILES CCC(=O)N[C@@H](CCCNC(=N)N)C(=O)N[C@@H](C)C(=O)N[C@@H](Cc1ccc(O)cc1)C(=O)N[C@@H](CCCNC(=N)N)C(=O)N[C@@H](Cc1c[nH]c2ccccc12)C(=O)N[C@@H](CCCNC(=N)N)C(N)=O) [IV-23-B Propionyl-RAYRWR-NH2] | 182 | – | – | –
3 | Propionyl-RYARWR-NH2 (SMILES CCC(=O)N[C@@H](CCCNC(=N)N)C(=O)N[C@@H](Cc1ccc(O)cc1)C(=O)N[C@@H](C)C(=O)N[C@@H](CCCNC(=N)N)C(=O)N[C@@H](Cc1c[nH]c2ccccc12)C(=O)N[C@@H](CCCNC(=N)N)C(N)=O) [IV-25-B Propionyl-RYARWR-NH2] | 495 | – | – | –
4 | Propionyl-RYYAWR-NH2 (SMILES CCC(=O)N[C@@H](CCCNC(=N)N)C(=O)N[C@@H](Cc1ccc(O)cc1)C(=O)N[C@@H](Cc1ccc(O)cc1)C(=O)N[C@@H](C)C(=O)N[C@@H](Cc1c[nH]c2ccccc12)C(=O)N[C@@H](CCCNC(=N)N)C(N)=O) [IV-27-B Propionyl-RYYAWR-NH2] | 400 | – | – | –
5 | Propionyl-RYYRAR-NH2 (SMILES CCC(=O)N[C@@H](CCCNC(=N)N)C(=O)N[C@@H](Cc1ccc(O)cc1)C(=O)N[C@@H](Cc1ccc(O)cc1)C(=O)N[C@@H](CCCNC(=N)N)C(=O)N[C@@H](C)C(=O)N[C@@H](CCCNC(=N)N)C(N)=O) [IV-29-B Propionyl-RYYRAR-NH2] | 1890 | – | – | –
6 | Propionyl-RYYRWA-NH2 (SMILES CCC(=O)N[C@@H](CCCNC(=N)N)C(=O)N[C@@H](Cc1ccc(O)cc1)C(=O)N[C@@H](Cc1ccc(O)cc1)C(=O)N[C@@H](CCCNC(=N)N)C(=O)N[C@@H](Cc1c[nH]c2ccccc12)C(=O)N[C@@H](C)C(N)=O) [IV-31-B Propionyl-RYYRWA-NH2] | 76 | – | – | –
7 | Hexanoyl-AYYRWR-NH2 (SMILES CCCCCC(=O)N[C@@H](C)C(=O)N[C@@H](Cc1ccc(O)cc1)C(=O)N[C@@H](Cc1ccc(O)cc1)C(=O)N[C@@H](CCCNC(=N)N)C(=O)N[C@@H](Cc1c[nH]c2ccccc12)C(=O)N[C@@H](CCCNC(=N)N)C(N)=O) [IV-33-B Hexanoyl-AYYRWR-NH2] | 1020 | – | – | –
8 | Hexanoyl-RAYRWR-NH2 (SMILES CCCCCC(=O)N[C@@H](CCCNC(=N)N)C(=O)N[C@@H](C)C(=O)N[C@@H](Cc1ccc(O)cc1)C(=O)N[C@@H](CCCNC(=N)N)C(=O)N[C@@H](Cc1c[nH]c2ccccc12)C(=O)N[C@@H](CCCNC(=N)N)C(N)=O) [IV-35-B Hexanoyl-RAYRWR-NH2] | 113 | – | – | –
9 | Hexanoyl-RYARWR-NH2 (SMILES CCCCCC(=O)N[C@@H](CCCNC(=N)N)C(=O)N[C@@H](Cc1ccc(O)cc1)C(=O)N[C@@H](C)C(=O)N[C@@H](CCCNC(=N)N)C(=O)N[C@@H](Cc1c[nH]c2ccccc12)C(=O)N[C@@H](CCCNC(=N)N)C(N)=O) [IV-37-B Hexanoyl-RYARWR-NH2] | 79 | – | – | –
10 | Hexanoyl-RYYAWR-NH2 (SMILES CCCCCC(=O)N[C@@H](CCCNC(=N)N)C(=O)N[C@@H](Cc1ccc(O)cc1)C(=O)N[C@@H](Cc1ccc(O)cc1)C(=O)N[C@@H](C)C(=O)N[C@@H](Cc1c[nH]c2ccccc12)C(=O)N[C@@H](CCCNC(=N)N)C(N)=O) [IV-39-B Hexanoyl-RYYAWR-NH2] | 1000 | – | – | –
11 | Hexanoyl-RYYRAR-NH2 (SMILES CCCCCC(=O)N[C@@H](CCCNC(=N)N)C(=O)N[C@@H](Cc1ccc(O)cc1)C(=O)N[C@@H](Cc1ccc(O)cc1)C(=O)N[C@@H](CCCNC(=N)N)C(=O)N[C@@H](C)C(=O)N[C@@H](CCCNC(=N)N)C(N)=O) [IV-41-B Hexanoyl-RYYRAR-NH2] | 710 | – | – | –
12 | Hexanoyl-RYYRWA-NH2 (SMILES CCCCCC(=O)N[C@@H](CCCNC(=N)N)C(=O)N[C@@H](Cc1ccc(O)cc1)C(=O)N[C@@H](Cc1ccc(O)cc1)C(=O)N[C@@H](CCCNC(=N)N)C(=O)N[C@@H](Cc1c[nH]c2ccccc12)C(=O)N[C@@H](C)C(N)=O) [IV-43-B Hexanoyl-RYYRWA-NH2] | 311 | – | – | –
13 | Ac-RY[Phe(4-NO2)]RWR-NH2 (SMILES CC(=O)N[C@@H](CCCNC(=N)N)C(=O)N[C@@H](Cc1ccc(O)cc1)C(=O)N[C@@H](Cc1ccc([N+](=O)[O-])cc1)C(=O)N[C@@H](CCCNC(=N)N)C(=O)N[C@@H](Cc1c[nH]c2ccccc12)C(=O)N[C@@H](CCCNC(=N)N)C(N)=O, also called Ac-Arg-Tyr-Phe(4-NO2)-Arg-Trp-Arg-NH2) [VII-63-B] | – | 43.2 | 3.2 | 0.17
14 | Ac-[Dap]YYRWR-NH2 (SMILES CC(=O)N[C@@H](CN)C(=O)N[C@@H](Cc1ccc(O)cc1)C(=O)N[C@@H](Cc1ccc(O)cc1)C(=O)N[C@@H](CCCNC(=N)N)C(=O)N[C@@H](Cc1c[nH]c2ccccc12)C(=O)N[C@@H](CCCNC(=N)N)C(N)=O, also called Ac-Dap-Tyr-Tyr-Arg-Trp-Arg-NH2) [VII-65-F] | – | 13.7 | – | 28.1
15 | Ac-[Dab]YYRWR-NH2 (SMILES CC(=O)N[C@@H](CCN)C(=O)N[C@@H](Cc1ccc(O)cc1)C(=O)N[C@@H](Cc1ccc(O)cc1)C(=O)N[C@@H](CCCNC(=N)N)C(=O)N[C@@H](Cc1c[nH]c2ccccc12)C(=O)N[C@@H](CCCNC(=N)N)C(N)=O, also called Ac-Dab-Tyr-Tyr-Arg-Trp-Arg-NH2) [VII-67-A] | – | < 20 | – | 5.59
16 | Ac-RY[hPhe(2,4-di-NO2)]RWR-NH2 (SMILES CC(=O)N[C@@H](CCCNC(=N)N)C(=O)N[C@@H](Cc1ccc(O)cc1)C(=O)N[C@@H](CCc1ccc([N+](=O)[O-])cc1[N+](=O)[O-])C(=O)N[C@@H](CCCNC(=N)N)C(=O)N[C@@H](Cc1c[nH]c2ccccc12)C(=O)N[C@@H](CCCNC(=N)N)C(N)=O, also called Ac-Arg-Tyr-hPhe(2,4-di-NO2)-Arg-Trp-Arg-NH2) [VII-71-B] | – | 33.6 | 7.5 | 0.63
17 | Ac-RY[Dmt]RWR-NH2 (SMILES CC(=O)N[C@@H](CCCNC(=N)N)C(=O)N[C@@H](Cc1ccc(O)cc1)C(=O)N[C@@H](Cc1c(C)cc(O)cc1C)C(=O)N[C@@H](CCCNC(=N)N)C(=O)N[C@@H](Cc1c[nH]c2ccccc12)C(=O)N[C@@H](CCCNC(=N)N)C(N)=O, also called Ac-Arg-Tyr-Tyr(2,6-di-Me)-Arg-Trp-Arg-NH2) [VII-73-A] | – | 52.7 | 5.2 | 0.04
18 | Ac-RY[Phe(4-CH2SO3H)]RWR-NH2 (SMILES CC(=O)N[C@@H](CCCNC(=N)N)C(=O)N[C@@H](Cc1ccc(O)cc1)C(=O)N[C@@H](Cc1ccc(CS(=O)(=O)O)cc1)C(=O)N[C@@H](CCCNC(=N)N)C(=O)N[C@@H](Cc1c[nH]c2ccccc12)C(=O)N[C@@H](CCCNC(=N)N)C(N)=O, also called Ac-Arg-Tyr-Phe(4-CH2SO3H)-Arg-Trp-Arg-NH2) [VII-75-B] | – | < 20 | – | 26.7
19 | Ac-RY[Phe(4-NHAc)]RWR-NH2 (SMILES CC(=O)Nc1ccc(C[C@H](NC(=O)[C@H](Cc2ccc(O)cc2)NC(=O)[C@H](CCCNC(=N)N)NC(C)=O)C(=O)N[C@@H](CCCNC(=N)N)C(=O)N[C@@H](Cc2c[nH]c3ccccc23)C(=O)N[C@@H](CCCNC(=N)N)C(N)=O)cc1, also called Ac-Arg-Tyr-Phe(4-NHAc)-Arg-Trp-Arg-NH2) [VII-77-A] | – | 19 | 115 | 0.88
20 | Ac-RY[Phe(4-CH2NH2)]RWR-NH2 (SMILES CC(=O)N[C@@H](CCCNC(=N)N)C(=O)N[C@@H](Cc1ccc(O)cc1)C(=O)N[C@@H](Cc1ccc(CN)cc1)C(=O)N[C@@H](CCCNC(=N)N)C(=O)N[C@@H](Cc1c[nH]c2ccccc12)C(=O)N[C@@H](CCCNC(=N)N)C(N)=O, also called Ac-Arg-Tyr-Phe(4-CH2NH2)-Arg-Trp-Arg-NH2) [VII-79-A] | – | < 20 | – | 2.54
21 | Ac-R[Tyr(3-Cl)]YRWR-NH2 (SMILES CC(=O)N[C@@H](CCCNC(=N)N)C(=O)N[C@@H](Cc1ccc(O)c(Cl)c1)C(=O)N[C@@H](Cc1ccc(O)cc1)C(=O)N[C@@H](CCCNC(=N)N)C(=O)N[C@@H](Cc1c[nH]c2ccccc12)C(=O)N[C@@H](CCCNC(=N)N)C(N)=O, also called Ac-Arg-Tyr(3-Cl)-Tyr-Arg-Trp-Arg-NH2) [VII-87-B] | – | 72 | 3.9 | 0.26
